Laboratory results from the supplement of paper PMC5998384.

Key:
HeLa Kyoto [1] = assay: solubility in G1/S (NP-40 vs SDS abundance) (log2 ratio); higher = more soluble; conditions: cell cycle stage: G1/S
HeLa Kyoto [2] = assay: melting temperature (median over replicates), in situ; higher = more thermally stable
HeLa Kyoto [3] = assay: solubility change mitosis vs G1/S (difference of NP-40 vs SDS log2 ratios) (log2 ratio difference); higher = more soluble in mitosis
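For melting temperature (median over replicates), in situ in this document: HeLa Kyoto cells synchronized by double thymidine or nocodazole block, proteins quantified by TMT10plex mass spectrometry, three independent biological replicates.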
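For solubility change mitosis vs G1/S (difference of NP-40 vs SDS log2 ratios) in this document: synchronized HeLa Kyoto cells (double thymidine block for G1/S, nocodazole release for mitosis), protein amounts in NP-40 versus SDS lysates quantified by mass spectrometry, three biological replicates.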
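For solubility in G1/S (NP-40 vs SDS abundance) in this document: HeLa Kyoto cells arrested at G1/S by double thymidine block, proteins quantified by TMT10plex mass spectrometry in mild NP-40 versus SDS extracts, three biological replicates.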

| Sequence | solubility in G1/S (log2) (HeLa Kyoto [1]) | melting temperature (HeLa Kyoto [2]; cell cycle stage: G1/S) [°C] | melting temperature (HeLa Kyoto [2]; cell cycle stage: mitosis) [°C] | solubility change mitosis (log2) (HeLa Kyoto [3]) |
| --- | --- | --- | --- | --- |
| MESGDEAAIERHRVHLRSATLRDAVPATLHLLPCEVAVDGPAPVGRFFTPAIRQGPEGLEVSFRGRCLRGEEVAVPPGLVGYVMVTEEKKVSMGKPDPLRDSGTDDQEEEPLERDFDRFIGATANFSRFTLWGLETIPGPDAKVRGALTWPSLAAAIHAQVPED [RNASEH2C] | 0.236 | 50.7 | 50.3 | -0.016 |
| MEVHGKPKASPSCSSPTRDSSGVPVSKELLTAGSDGRGGIWDRLLINSQPKSRKTSTLQTVRIERSPLLDQVQTFLPQMARANEKLRKEMAAAPPGRFNIENIDGPHSKVIQMDVALFEMNQSDSKEVDSSEESSQDSSENSSESEDEDDSIPSEVTIDNIKLPNSEGGKGKIEVLDSPASKKKK [C12ORF45] | -0.302 | 52.9 | 53.7 | 0.0873 |
| MFHGIPATPGIGAPGNKPELYEEVKLYKNAREREKYDNMAELFAVVKTMQALEKAYIKDCVSPSEYTAACSRLLVQYKAAFRQVQGSEISSIDEFCRKFRLDCPLAMERIKEDRPITIKDDKGNLNRCIADVVSLFITVMDKLRLEIRAMDEIQPDLRELMETMHRMSHLPPDFEGRQTVSQWLQTLSGMSASDELDDSQVRQMLFDLESAYNAFNRFLHA [VPS28] | 0.19 | 51.5 | – | 0.014 |
| MGAPRSLLLALAAGLAVARPPNIVLIFADDLGYGDLGCYGHPSSTTPNLDQLAAGGLRFTDFYVPVSLCTPSRAALLTGRLPVRMGMYPGVLVPSSRGGLPLEEVTVAEVLAARGYLTGMAGKWHLGVGPEGAFLPPHQGFHRFLGIPYSHDQGPCQNLTCFPPATPCDGGCDQGLVPIPLLANLSVEAQPPWLPGLEARYMAFAHDLMADAQRQDRPFFLYYASHHTHYPQFSGQSFAERSGRGPFGDSLMELDAAVGTLMTAIGDLGLLEETLVIFTADNGPETMRMSRGGCSGLLRCGKGTTYEGGVREPALAFWPGHIAPGVTHELASSLDLLPTLAALAGAPLPNVTLDGFDLSPLLLGTGKSPRQSLFFYPSYPDEVRGVFAVRTGKYKAHFFTQGSAHSDTTADPACHASSSLTAHEPPLLYDLSKDPGENYNLLGGVAGATPEVLQALKQLQLLKAQLDAAVTFGPSQVARGEDPALQICCHPGCTPRPACCHCPDPHA [ARSA] | 0.664 | 55.6 | 55.6 | -0.0336 |
| MGDEDDDESCAVELRITEANLTGHEEKVSVENFELLKVLGTGAYGKVFLVRKAGGHDAGKLYAMKVLRKAALVQRAKTQEHTRTERSVLELVRQAPFLVTLHYAFQTDAKLHLILDYVSGGEMFTHLYQRQYFKEAEVRVYGGEIVLALEHLHKLGIIYRDLKLENVLLDSEGHIVLTDFGLSKEFLTEEKERTFSFCGTIEYMAPEIIRSKTGHGKAVDWWSLGILLFELLTGASPFTLEGERNTQAEVSRRILKCSPPFPPRIGPVAQDLLQRLLCKDPKKRLGAGPQGAQEVRNHPFFQGLDWVALAARKIPAPFRPQIRSELDVGNFAEEFTRLEPVYSPPGSPPPGDPRIFQGYSFVAPSILFDHNNAVMTDGLEAPGAGDRPGRAAVARSAMMQDSPFFQQYELDLREPALGQGSFSVCRRCRQRQSGQEFAVKILSRRLEANTQREVAALRLCQSHPNVVNLHEVHHDQLHTYLVLELLRGGELLEHIRKKRHFSESEASQILRSLVSAVSFMHEEAGVVHRDLKPENILYADDTPGAPVKIIDFGFARLRPQSPGVPMQTPCFTLQYAAPELLAQQGYDESCDLWSLGVILYMMLSGQVPFQGASGQGGQSQAAEIMCKIREGRFSLDGEAWQGVSEEAKELVRGLLTVDPAKRLKLEGLRGSSWLQDGSARSSPPLRTPDVLESSGPAVRSGLNATFMAFNRGKREGFFLKSVENAPLAKRRKQKLRSATASRRGSPAPANPGRAPVASKGAPRRANGPLPPS [RPS6KA4] | -0.0622 | 46.6 | 49.5 | -0.0849 |
| MGEAGAGAGASGGPEASPEAEVVKLLPFLAPGARADLQAAAVRHVLALTGCGPGRALLAGQAALLQALMELAPASAPARDAARALVNLAADPGLHETLLAADPGLPARLMGRALDPQWPWAEEAAAALANLSREPAPCAALMAALAAAEPADSGLERLVRALCTPGYNARAPLHYLAPLLSNLSQRPAARAFLLDPDRCVVQRLLPLTQYPDSSVRRGGVVGTLRNCCFEHRHHEWLLGPEVDILPFLLLPLAGPEDFSEEEMERLPVDLQYLPPDKQREPDADIRKMLVEAIMLLTATAPGRQQVRDQGAYLILRELHSWEPEPDVRTACEKLIQVLIGDEPERGMENLLEVQVPEDVEQQLQQLDCREQEQLERELAPEPWVERATPT [HGH1] | 0.131 | 48.7 | 50.5 | 0.156 |
| MGKKHKKHKSDKHLYEEYVEKPLKLVLKVGGNEVTELSTGSSGHDSSLFEDKNDHDKHKDRKRKKRKKGEKQIPGEEKGRKRRRVKEDKKKRDRDRVENEAEKDLQCHAPVRLDLPPEKPLTSSLAKQEEVEQTPLQEALNQLMRQLQRKDPSAFFSFPVTDFIAPGYSMIIKHPMDFSTMKEKIKNNDYQSIEELKDNFKLMCTNAMIYNKPETIYYKAAKKLLHSGMKILSQERIQSLKQSIDFMADLQKTRKQKDGTDTSQSGEDGGCWQREREDSGDAEAHAFKSPSKENKKKDKDMLEDKFKSNNLEREQEQLDRIVKESGGKLTRRLVNSQCEFERRKPDGTTTLGLLHPVDPIVGEPGYCPVRLGMTTGRLQSGVNTLQGFKEDKRNKVTPVLYLNYGPYSSYAPHYDSTFANISKDDSDLIYSTYGEDSDLPSDFSIHEFLATCQDYPYVMADSLLDVLTKGGHSRTLQEMEMSLPEDEGHTRTLDTAKEMEITEVEPPGRLDSSTQDRLIALKAVTNFGVPVEVFDSEEAEIFQKKLDETTRLLRELQEAQNERLSTRPPPNMICLLGPSYREMHLAEQVTNNLKELAQQVTPGDIVSTYGVRKAMGISIPSPVMENNFVDLTEDTEEPKKTDVAECGPGGS [BRD7] | -0.49 | 46.7 | 49.1 | 0.315 |
| MGPVRLGILLFLFLAVHEAWAGMLKEEDDDTERLPSKCEVCKLLSTELQAELSRTGRSREVLELGQVLDTGKRKRHVPYSVSETRLEEALENLCERILDYSVHAERKGSLRYAKGQSQTMATLKGLVQKGVKVDLGIPLELWDEPSVEVTYLKKQCETMLEEFEDIVGDWYFHHQEQPLQNFLCEGHVLPAAETACLQETWTGKEITDGEEKTEGEEEQEEEEEEEEEEGGDKMTKTGSHPKLDREDL [CNPY4] | 0.0586 | – | 54.3 | 0.223 |
| MGWSQDLFRALWRSLSREVKEHVGTDQFGNKYYYIPQYKNWRGQTIREKRIVEAANKKEVDYEAGDIPTEWEAWIRRTRKTPPTMEEILKNEKHREEIKIKSQDFYEKEKLLSKETSEELLPPPVQTQIKGHASAPYFGKEEPSVAPSSTGKTFQPGSWMPRDGKSHNQ [NDUFAF2] | 0.329 | 55.5 | 52.2 | 0.329 |
| MIEDTMTLLSLLGRIMRYFLLRPETLFLLCISLALWSYFFHTDEVKTIVKSSRDAVKMVKGKVAEIMQNDRLGGLDVLEAEFSKTWEFKNHNVAVYSIQGRRDHMEDRFEVLTDLANKTHPSIFGIFDGHGGETAAEYVKSRLPEALKQHLQDYEKDKENSVLSYQTILEQQILSIDREMLEKLTVSYDEAGTTCLIALLSDKDLTVANVGDSRGVLCDKDGNAIPLSHDHKPYQLKERKRIKRAGGFISFNGSWRVQGILAMSRSLGDYPLKNLNVVIPDPDILTFDLDKLQPEFMILASDGLWDAFSNEEAVRFIKERLDEPHFGAKSIVLQSFYRGCPDNITVMVVKFRNSSKTEEQ [PPM1L] | -0.0862 | – | 53.9 | -0.142 |
| MISQFFILSSKGDPLIYKDFRGDSGGRDVAELFYRKLTGLPGDESPVVMHHHGRHFIHIRHSGLYLVVTTSENVSPFSLLELLSRLATLLGDYCGSLGEGTISRNVALVYELLDEVLDYGYVQTTSTEMLRNFIQTEAVVSKPFSLFDLSSVGLFGAETQQSKVAPSSAASRPVLSSRSDQSQKNEVFLDVVERLSVLIASNGSLLKVDVQGEIRLKSFLPSGSEMRIGLTEEFCVGKSELRGYGPGIRVDEVSFHSSVNLDEFESHRILRLQPPQGELTVMRYQLSDDLPSPLPFRLFPSVQWDRGSGRLQVYLKLRCDLLSKSQALNVRLHLPLPRGVVSLSQELSSPEQKAELAEGALRWDLPRVQGGSQLSGLFQMDVPGPPGPPSHGLSTSASPLGLGPASLSFELPRHTCSGLQVRFLRLAFRPCGNANPHKWVRHLSHSDAYVIRI [AP4M1] | -0.0981 | 49.2 | – | -0.0241 |
| MKAVKSERERGSRRRHRDGDVVLPAGVVVKQERLSPEVAPPAHRRPDHSGGSPSPPTSEPARSGHRGNRARGVSRSPPKKKNKASGRRSKSPRSKRNRSPHHSTVKVKQEREDHPRRGREDRQHREPSEQEHRRARNSDRDRHRGHSHQRRTSNERPGSGQGQGRDRDTQNLQAQEEEREFYNARRREHRQRNDVGGGGSESQELVPRPGGNNKEKEVPAKEKPSFELSGALLEDTNTFRGVVIKYSEPPEARIPKKRWRLYPFKNDEVLPVMYIHRQSAYLLGRHRRIADIPIDHPSCSKQHAVFQYRLVEYTRADGTVGRRVKPYIIDLGSGNGTFLNNKRIEPQRYYELKEKDVLKFGFSSREYVLLHESSDTSEIDRKDDEDEEEEEEVSDS [SNIP1] | -0.985 | – | 49.8 | 0.493 |
| MLPGLRRLLQAPASACLLLMLLALPLAAPSCPMLCTCYSSPPTVSCQANNFSSVPLSLPPSTQRLFLQNNLIRTLRPGTFGSNLLTLWLFSNNLSTIYPGTFRHLQALEELDLGDNRHLRSLEPDTFQGLERLQSLHLYRCQLSSLPGNIFRGLVSLQYLYLQENSLLHLQDDLFADLANLSHLFLHGNRLRLLTEHVFRGLGSLDRLLLHGNRLQGVHRAAFRGLSRLTILYLFNNSLASLPGEALADLPSLEFLRLNANPWACDCRARPLWAWFQRARVSSSDVTCATPPERQGRDLRALREADFQACPPAAPTRPGSRARGNSSSNHLYGVAEAGAPPADPSTLYRDLPAEDSRGRQGGDAPTEDDYWGGYGGEDQRGEQMCPGAACQAPPDSRGPALSAGLPSPLLCLLLLVPHHL [RTN4RL2] | 0.0566 | 54 | 53.7 | -0.00838 |
| MNGEEEFFDAVTGFDSDNSSGEFSEANQKVTGMIDLDTSKNNRIGKTGERPSQENGIQKHRTSLPAPMFSRSDFSVWTILKKCVGLELSKITMPIAFNEPLSFLQRITEYMEHVYLIHRASCQPQPLERMQSVAAFAVSAVASQWERTGKPFNPLLGETYELIREDLGFRFISEQVSHHPPISAFHSEGLNHDFLFHGSIYPKLKFWGKSVEAEPRGTITLELLKHNEAYTWTNPTCCVHNVIIGKLWIEQYGTVEILNHRTGHKCVLHFKPCGLFGKELHKVEGHIQDKNKKKLFMIYGKWTECLWGIDPVSYESFKKQERRGDHLRKAKLDEDSGKADSDVADDVPVAQETVQVIPGSKLLWRINTRPPNSAQMYNFTSFTVSLNELETGMEKTLPPTDCRLRPDIRGMENGNMDLASQEKERLEEKQREARRERAKEEAEWQTRWFYPGNNPYTGTPDWLYAGDYFERNFSDCPDIY [OSBPL2] | -0.0421 | 48.1 | 48.6 | -0.108 |
